Measurements from US20240207380A1, “NOVEL PEPTIDE TARGETING DENDRITIC CELLS, AND COMPOSITION FOR TREATING CANCER COMPRISING SAME” (INDUSTRY FOUNDATION OF CHONNAM NATIONAL UNIVERSITY, priority 2021, published 2024).
Entries after “also recorded” stand apart in the source; their conditions may differ.

Columns and labels:
TC-1 cells [1] = assay: Antitumor effect in NLRC4-knockout TC-1 tumor-bearing mice; type: in vivo; conditions: 20 μg
Excerpt: (§1) Wild-type (WT), TLR5-knockout (TLR5^−/−) and NLRC4-knockout (NLRC4^−/−) mouse groups were implanted with TC-1 cells in the right mid-flank. […] The results are depicted in FIG. 25.

TLR5 = biological target: T1, TLR5 (Homo sapiens, UniProt O60602); type: cell-based; conditions: HEK-Blue hTLR5 cells
T1 construct: host or cells: HEK-Blue hTLR5 cells (HEK293-derived reporter line, own knowledge: stably transfected with the human TLR5 gene and an NF-kB-inducible SEAP reporter)
T1 sequence (O60602 21-858): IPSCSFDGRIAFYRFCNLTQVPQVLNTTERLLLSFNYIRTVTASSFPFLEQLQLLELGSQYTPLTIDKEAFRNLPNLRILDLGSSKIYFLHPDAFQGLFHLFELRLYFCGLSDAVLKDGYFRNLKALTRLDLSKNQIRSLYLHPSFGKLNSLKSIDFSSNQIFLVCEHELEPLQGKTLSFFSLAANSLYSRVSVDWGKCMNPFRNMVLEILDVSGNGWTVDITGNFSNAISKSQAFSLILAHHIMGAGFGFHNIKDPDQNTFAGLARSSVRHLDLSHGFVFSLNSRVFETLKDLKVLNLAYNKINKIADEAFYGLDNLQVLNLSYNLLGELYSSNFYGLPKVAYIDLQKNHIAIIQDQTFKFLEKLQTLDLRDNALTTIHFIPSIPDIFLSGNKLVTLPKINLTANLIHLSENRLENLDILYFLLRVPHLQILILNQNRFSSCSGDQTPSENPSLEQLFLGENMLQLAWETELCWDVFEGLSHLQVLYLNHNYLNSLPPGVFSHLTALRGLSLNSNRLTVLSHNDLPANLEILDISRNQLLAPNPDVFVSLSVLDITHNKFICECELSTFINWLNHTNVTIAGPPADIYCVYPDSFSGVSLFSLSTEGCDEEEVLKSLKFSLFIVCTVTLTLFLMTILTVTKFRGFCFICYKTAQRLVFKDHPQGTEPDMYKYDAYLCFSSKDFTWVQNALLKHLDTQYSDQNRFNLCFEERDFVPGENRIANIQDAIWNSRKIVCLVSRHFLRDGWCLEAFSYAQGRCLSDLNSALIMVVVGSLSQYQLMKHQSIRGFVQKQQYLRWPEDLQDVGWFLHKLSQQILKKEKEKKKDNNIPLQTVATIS
Protocol: Also, the EC50 was calculated using triplicate OD 620 nm values for each protein concentration over a wide range of protein concentrations (0.0375 nM-19.29 nM at the AAT Bioquest website).

CD8^+ T cells = assay: Peptide-mediated CD8+ T cell activation (CFSE dilution, coculture with pulsed BMDCs); type: cell-based, mice
Protocol: CD8^+ splenocytes from TC-1 tumor-bearing mice were prepared using the MagniSort™ Mouse CD8 T Cell Enrichment kit (Invitrogen, 8804-6822) according to the manufacturer's instructions, and were labeled with 5 μM CFSE. EF- or DEF-pulsed BMDCs were cocultured with CFSE-stained CD8^+ cells at a ratio of 1:5 (BMDC:CD8^+ T cells) for 3 days in RPMI 1640 medium supplemented with 10% fetal bovine serum (HyClone, Logan, UT), 1% penicillin/streptomycin (Life Technologies, Grand Island, NY), and 50 μM 2-mercaptoethanol (Sigma, 516732). CD8^+ T cell proliferation was assessed by CFSE dilution using flow cytometry.

[2] = In vivo distribution of FNR675-labeled peptides in draining inguinal lymph nodes; parameters: species or system  mice; conditions: subcutaneous
Protocol: Next, the conjugated proteins were quantitatively determined from the calibration curve of the FNR675-NHS ester using a UV-Vis spectrophotometer (UV-2700, Shimadzu, Japan).
The fluorescence signals in the draining lymph nodes were determined and are depicted in FIG. 16. In addition, six hours after injection, the draining inguinal LN (iLN) cells were prepared, and then in vivo DC-targeting was determined by FACS analysis gating upon CD11c^+ cell population, and the results are depicted in FIG. 17.

TC-1 cells [3] = assay: Antitumor efficacy of peptides in TC-1 tumor-bearing mice (survival, tumor volume); type: in vivo, C57BL/6 mice
Protocol: Female SPF C57BL/6 mice 7 to 8 weeks old were purchased from ORIENT (Seongnam-si, Gyeonggi-do, Korea). TC-1 cells were cultured in RPMI 1640 medium supplemented with 10% heat-inactivated FIBS, 100 units/ml penicillin, and 100 μg/ml streptomycin at 37° C. under 5% CO2. Tumors were established in mice by subcutaneous injection of 5×10^4 TC-1 cells in 100 μl of PBS into the right mid-flank of each mouse. […] Tumor growth was monitored every three days. The tumor volume was calculated with formula V=(tumor length)×(tumor width)×(tumor height)/2.
The tumor-bearing mice were administered the all-in-one vaccine of the present disclosure as in Example 5 and measured for survival rate and tumor volume in the same manner. For a positive control, a group of mice was immunized with HPV16 E7 CTL peptide (amino acid 49-57: […]), known as a cytotoxic T lymphocyte (CTL)-inducing peptide.

TC-1 cells [4] = assay: Antitumor effect in TLR5-knockout TC-1 tumor-bearing mice; type: in vivo
Excerpt: as §1

BMDCs or RAW264.7 cells = assay: Intracellular distribution of EF and DEF by confocal microscopy; type: cell-based; conditions: 20 μg/ml, 2 hours
Protocol: After incubation, the cells were harvested, washed, fixed with 100% methanol for 15 minutes at room temperature, and stained with anti-mouse CD11c^+ APC-conjugated antibody and DAPI, a nuclear stain, for 1 hour at room temperature. After two washes with cold 1×PBS, the intercellular distributions of the peptides within the dendritic cells (CD11c^+) were determined by confocal microscopy (LSM800).

[5] = tested on: Bone marrow-derived dendritic cells (BMDCs); assay: Antigen-presenting cell activation (CD80 and CD86 on BMDC surface); type: cell-based, C57BL/6 mice; conditions: 0.5 μg/ml, 24 hours
Excerpt: The cells were stained on ice with fluorophore-labeled antibodies before flow cytometry analysis.

[6] = tested on: Bone marrow-derived dendritic cells (BMDCs); assay: Cellular uptake of EF and DEF in BMDCs (flow cytometry); type: cell-based, C57BL/6 mice; conditions: 2 hours, anti-FlaB staining, FACS gated on CD11c+
Protocol: Cells treated with PBS alone were used as a negative control. After incubation, the cells were washed twice with cold 1×PBS containing 3% FBS and then stained with anti-mouse CD11c^+ antibody (eBioscience, Clone: N418, 25-0114-82) for 1 hour at 4° C. and fixed with 4% paraformaldehyde (T&I, BPP-9004) for 10 minutes at room temperature. The cells were permeabilized using a permeabilization kit according to the manufacturer's instructions (Invitrogen, 00-8333-56) and stained with anti-FlaB antibodies, followed by FACS analysis by gating upon the CD11c^+ population. The results are depicted in FIG. 14.

[7] = tested on: IFN-γ-producing cells of spleen (SPL) or tumor-draining lymph nodes (TDLNs); assay: CTL peptide-specific immune response (IFN-γ ELISpot); type: in vivo, mice
Protocol: Single-cell suspensions from the spleen (SPL) or tumor-draining lymph nodes (TDLNs) were prepared by administering the peptides of the present disclosure to mice with or without tumors in the same manner as in Example 5. A total of 1×10^6 SPL or 2.5×10^5 TDLNs cells were seeded into 96-well Filtration ELISpot plates (Merck, HAMAS4510) and stimulated with 1 μg/ml E7 CTL peptide (amino acids 49-57: […]). Cells stimulated with 10 ng/ml concanavalin A were used as a positive control. After two days of culture of SPL cells or five days of culture of TDLN cells, IFN-γ-producing cells were detected by using the mouse IFN-γ ELISpot Set (BD Bioscience, 551083) according to the manufacturer's instructions. IFN-γ-producing cells were analyzed using a CTL-ImmunoSpot Analyzer and ImmunoSpot Professional Software version 5.0 (Cellular Technology, Shaker Heights, OH, USA).

[8] = tested on: CTL epitope-specific tetramer+ CD8+ cells; assay: Antigen-specific T cell immune response (E7 tetramer+ CD8+ cells in peripheral blood); type: in vivo, mice
Protocol: The peptides of the present disclosure as in Example 5 were administered to mice with or without tumors and peripheral blood was collected therefrom. After removal of RBC by RBC lysis buffer, the blood was stained with the tetramer antibody (PE-conjugated HPV16 H-2Db-[…], TB-5008-1, MBL) and CD8 antibody and analyzed by flow cytometry.

[9] = versus E7 Pep+F positive control

B1: DEF (protein)
chain: MRFFCLGPLGFTKVDIDGPAGQAEPDRAHYNIVTFCCKCDSTLRLCVQSTHVDIRTLEDLLMGTLGIVCPICSQKPEFIDGPAGQAEPDRAHYNIVTFCCKCDSTLRLCVQSTHVDIRTLEDLLMGTLGIVCPICSQKPVDIDGPAGQAEPDRAHYNIVTFCCKCDSTLRLCVQSTHVDIRTLEDLLMGTLGIVCPICSQKPVDIDGPAGQAEPDRAHYNIVTFCCKCDSTLRLCVQSTHVDIRTLEDLLMGTLGIVCPICSQKPKLMAVNVNTNVAAMTAQRYLNNANSAQQTSMERLSSGFKINSAKDDAAGLQISNRLNVQSRGLDVAVRNANDGISIAQTAEGAMNETTNILQRMRDLSLQSANGSNSKSERVAIQEEVTALNDELNRIAETTSFGGNKLLNGTYGTKAMQIGADNGEAVMLSLKDMRSDNVMMGGVSYQAEEGKDKNWNVAAGDNDLTIALTDSFGNEQEIEINAKAGDDIEELATYINGQTDLVKASVGEGGKLQIFAGNNKVQGEIAFSGSLAGELGLGEGKNVTVDTIDVTTVQGAQESVAIVDAALKYVDSHRAELGAFQNRFNHAISNLDNINENVNASKSRIKDTDFAKETTQLTKTQILSQASSSILAQAKQAPNSALSLLGLEHHHHHH
modifications: DCpep6::4xE7deltaNLS::FlaB (DEF)
effects on tumor volume and survival (FIG. 25) (TC-1 cells [1]): abolished
NF-κB activity levels (FIG. 13) (TLR5): increased the activity in dose-dependent manners
division index of CD8+ T cells (FIG. 26) (CD8^+ T cells; NLRC4-knockout (NLRC4^−/−) mice, 1 μg/mL): rather decreased
division index of CD8+ T cells (FIG. 26) (CD8^+ T cells; wild-type (WT) mice BMDCs pulsed with 1 μg/mL for 24 hours, coculture 1:5 for 3 days): significantly enhanced
time to removal from the draining lymph nodes post administration [2]: ≤ 24 h
tumor volume (FIG. 19) (TC-1 cells [3]; among all administered groups): smallest
survival (FIG. 18) (TC-1 cells [3]; compared with E7ΔNLS (E)-administered group): significantly longer survival; also recorded: longest survival
survival compared with HPV16 E7 CTL peptide+FlaB (E7 Pep+F) group (FIG. 18) (TC-1 cells [3]; [9]): notably longer survival
tumor volume compared with HPV16 E7 CTL peptide+FlaB (E7 Pep+F) group (FIG. 19) (TC-1 cells [3]; [9]): remarkably much smaller
survival and tumor volume effect in TLR5^−/− mice relative to wild-type mice (FIG. 25) (TC-1 cells [4]; 20 μg, TLR5^−/− versus wild-type): significantly lower levels
survival (FIG. 25) (TC-1 cells [4]; TLR5^−/− mice, 20 μg subcutaneous peritumoral three times, compared to PBS group): significantly longer survival
tumor volume (FIG. 25) (TC-1 cells [4]; TLR5^−/− mice, 20 μg, compared to PBS group): decreased
intracellular location (FIG. 15) (BMDCs or RAW264.7 cells): located in the cytoplasm of CD11c^+ cells
expression of CD80 and CD86 on BMDC surface (FIG. 20) [5]: significantly enhanced expression
cellular uptake in bone marrow-derived dendritic cells (FIG. 14) [6]: concentration-dependent cellular uptake
IFN-γ production (FIG. 24) ([7]; mice without tumors): significantly higher level
IFN-γ production level in SPL and TDLNs (FIG. 23) ([7]; tumor-bearing mice, compared to PBS, E and EF): significantly enhanced
tetramer-positive cells in peripheral blood (FIG. 22) ([8]; mice without tumors): remarkably high levels
CTL epitope-specific tetramer-positive CD8+ cells in peripheral blood (FIG. 21) ([8]; tumor-bearing mice, compared with PBS, E and EF groups): significantly higher levels
